Source: PMC4150794

Experiments:
[1] = system: RBPMS2-Nter (Homo sapiens); experiment: EMSA; conditions: theoretical Kd, cooperative fit; 100 nM RNA; second complex at 5 uM; EMSA: 20 mM Tris pH 7.4, 100 mM KCl, 1 mM EDTA, 10 ug/ml BSA, 1 mM DTT, 1 U/ul RNaseOUT, 2% glycerol, 20 C 30 min, 10% gel in 1X TBE at 4 C; anisotropy: 20 mM …
Q6ZRY4 = experiment: SEC-MALS; Superdex 75 10/300, 20 mM Tris-HCl pH 8, 300 mM NaCl; loaded at 2 mg/ml (RBPMS2-Nter) or 4 mg/ml (RBPMS2-Nter-L49E); monomer to dimer

| Substance | Kd [1] [nM] | percent of the protein in the monomer peak (Q6ZRY4) |
| --- | --- | --- |
| 161-nt NOGGIN RNA | 2250 | – |
| RBPMS2-Nter-L49E (human RBPMS2 residues 27-117 with L49E) | – | The majority species (92.4%) has a Mw of 10.6 kDa, as would be expected for the monomer |
